One may read the kcat/Km as the turnover number divided by the Michaelis constant. A word on the Km: it is the concentration of substrate that gives half-maximal velocity.

From publication PMC4323659 (Scientific Reports, 2015) come the findings set out here.

The target in data set [1] is T1, VmoLac (Vulcanisaeta moutnovskia, UniProt F0QXN6).
T1 construct: gene VMUT_2255; full length, 315 residues; Strep tag removed by TEV protease; E. coli BL21(DE3)-pGro7/GroEL; homodimer; bi-cobalt enzyme
Format: biochemical.

Data set [2] addresses T1, VmoLac. It counts as binding.
The test system of the next data set is CCCCCCCCC1CCC(=O)O1. The data set can be described thus: purified protein. Particulars: pH 8.3; 25.0 °C.
Data set [3] deals with CCCCCCCC(=O)CC(=O)N[C@H]1CCOC1=O. Briefly: purified protein. As to conditions: pH 8.3; 25.0 °C.
Data set [4] has as its system CCCCCC(=O)CC(=O)N[C@H]1CCOC1=O. Briefly: purified protein. As to conditions: pH 8.3; 25.0 °C.
A further data set has as its system CCCCCCCC(=O)NC1CCOC1=O. Briefly: purified protein. Particulars: pH 8.3; 25.0 °C.
The test system of another data set is CCC1CCC(=O)O1. Briefly: purified protein. Particulars: pH 8.3; 25.0 °C.
A further data set deals with CCCCCC1CCC(=O)O1. Briefly: purified protein. Particulars: pH 8.3; 25.0 °C.
Another data set deals with CCCCC1CCCC(=O)O1. The data set can be described thus: purified protein. As to conditions: pH 8.3; 25.0 °C.
A further data set concerns CCCC1CCC(=O)O1. Briefly: purified protein. Particulars: pH 8.3; 25.0 °C.
For another data set, the system named is CCCCCCCC1CCCC(=O)O1. Briefly: purified protein. Particulars: pH 8.3; 25.0 °C.
The subject of a further data set is CCCCCCC1CCCC(=O)O1. Briefly: purified protein. As to conditions: pH 8.3; 25.0 °C.

In the case of `CC(=O)Oc1ccc([N+](=O)[O-])cc1` [VIII, pNP-Acetate], the “KM (μM)” value at VmoLac [1] is 4 471 ± 593 μM.
As to `CCCCCCCC(=O)CC(=O)N[C@H]1CCOC1=O` [XVI, 3-oxo C10 AHL], the “X-ray crystal structure, soaked crystal, 2.0 Å” value on VmoLac [2] was “Crystals of VmoLac were soaked with 3-oxo-C10 AHL, and the lactone sits”.
Consider “VmoLac (Vulcanisaeta moutnovskia 768-28)”, for which the K0.5 in the data set with CCCCCCCCC1CCC(=O)O1 was found to be 2.1 ± 0.6 µM; in the data set with CCCCCCCC1CCCC(=O)O1, 839 ± 13 µM. The kcat/Km is 77700 ± 24000 M⁻¹ s⁻¹ in the data set on CCCCCCCCC1CCC(=O)O1; 2050 ± 500 M⁻¹ s⁻¹ in data set [3]; 1880 ± 380 M⁻¹ s⁻¹ in [4]; 2230 ± 480 M⁻¹ s⁻¹ in the data set with CCCCCCCC(=O)NC1CCOC1=O; 30300 ± 4600 M⁻¹ s⁻¹ with CCC1CCC(=O)O1; 948000 ± 218000 M⁻¹ s⁻¹ in the data set on CCCCCC1CCC(=O)O1. Besides, the figures for the kcat/Km in the data set with CCCCC1CCCC(=O)O1, with CCCC1CCC(=O)O1 and in the data set on CCCCCCC1CCCC(=O)O1 were 72900 ± 3700 M⁻¹ s⁻¹, 31200 ± 8600 M⁻¹ s⁻¹ and 580000 ± 132000 M⁻¹ s⁻¹, respectively. Moreover, the Km in [3] amounted to 231 ± 55 µM; in [4], 186 ± 37 µM; in the data set with CCCCCCCC(=O)NC1CCOC1=O, 262 ± 54 µM; in the data set on CCC1CCC(=O)O1, 3.709 ± 0.497 mM; with CCCCCC1CCC(=O)O1 it was 47 ± 11 µM; in the data set on CCCCC1CCCC(=O)O1, 1220 ± 59 µM. The figures for the Km with CCCC1CCC(=O)O1 and with CCCCCCC1CCCC(=O)O1 were 872 ± 220 µM and 105 ± 24 µM, respectively.
In the case of `CCOP(=O)(OCC)Oc1ccc([N+](=O)[O-])cc1` [I, ethyl-paraoxon], at VmoLac [1] (HEPES 50 mM pH 8, NaCl 150 mM, CoCl2 0.2 mM, 25°C), the Km was determined as 581 ± 61 µM.
